Laboratory results reported in patent US20140087995A1 (published 2014).
Numbered stars: 1 amine (or outer) side, 2 acyl side, 3 side chain; on linkers, the order of the positions; unused ones are H or OH. Bridge positions count the residues as written; N and C are the ends. Side chains are listed from the residue outwards. Ends that are not written are not given here. * marks the point of attachment. C20 diacid = O=C(O)CCCCCCCCCCCCCCCCCCC(=O)*; γGlu = O=C(O)[C@H](CCC(=O)[*:2])N[*:1]

T1: human calcitonin receptor (human, UniProt P30988 25-474)
T1 sequence (looked up): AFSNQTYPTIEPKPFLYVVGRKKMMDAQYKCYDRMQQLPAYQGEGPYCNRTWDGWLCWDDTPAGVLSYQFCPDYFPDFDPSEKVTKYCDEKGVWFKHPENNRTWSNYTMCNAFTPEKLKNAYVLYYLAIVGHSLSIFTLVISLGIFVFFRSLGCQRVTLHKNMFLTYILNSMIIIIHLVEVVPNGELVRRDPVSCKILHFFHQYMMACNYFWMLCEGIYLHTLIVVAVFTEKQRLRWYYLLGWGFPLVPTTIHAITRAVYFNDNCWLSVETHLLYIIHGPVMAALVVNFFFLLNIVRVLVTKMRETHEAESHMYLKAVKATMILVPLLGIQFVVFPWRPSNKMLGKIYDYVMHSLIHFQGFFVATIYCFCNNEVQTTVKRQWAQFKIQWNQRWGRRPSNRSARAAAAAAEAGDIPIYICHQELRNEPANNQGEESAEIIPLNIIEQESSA

T2: human amylin receptor (amylin 3(a) receptor: human calcitonin receptor coexpressed with RAMP-3) (human, UniProt P30988 25-474; O60896 24-148)
T2 sequence (looked up) 1: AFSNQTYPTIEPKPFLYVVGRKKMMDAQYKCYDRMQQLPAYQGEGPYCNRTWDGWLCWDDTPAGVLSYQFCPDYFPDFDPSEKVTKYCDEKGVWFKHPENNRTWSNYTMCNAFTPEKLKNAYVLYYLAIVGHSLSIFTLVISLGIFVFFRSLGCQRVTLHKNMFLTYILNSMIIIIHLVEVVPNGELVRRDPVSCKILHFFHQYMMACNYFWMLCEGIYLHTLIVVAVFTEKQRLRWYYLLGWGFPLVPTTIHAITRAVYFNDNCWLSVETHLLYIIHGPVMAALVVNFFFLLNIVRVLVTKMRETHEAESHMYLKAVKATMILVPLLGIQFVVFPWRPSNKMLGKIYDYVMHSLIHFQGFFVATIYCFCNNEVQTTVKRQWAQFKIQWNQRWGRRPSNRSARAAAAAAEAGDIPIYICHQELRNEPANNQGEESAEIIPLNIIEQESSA
T2 sequence (looked up) 2: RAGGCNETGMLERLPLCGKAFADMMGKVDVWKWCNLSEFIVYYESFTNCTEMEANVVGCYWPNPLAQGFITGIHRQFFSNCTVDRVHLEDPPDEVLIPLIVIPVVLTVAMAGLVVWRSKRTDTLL


Legend:
[1] = biological target: T1, human calcitonin receptor; assay: cell-based or functional assay
[2] = biological target: T2, human amylin receptor (amylin 3(a) …); assay: cell-based or functional assay

hCTR funct. EC50 (pM) [1] | hAmylin-R funct. EC50 (pM) [2] | Ratio hCT/hAmylin funct. [1] | Binder
16800 pM | 405 pM | – | K([γGlu-C20 diacid])CNTATCATQRLARFLRHSSPNFGAIPSSTNVGSNTY-NH2 (disulfide 2-7; N-terminus assumed; SMILES CC[C@H](C)[C@H](NC(=O)[C@H](C)NC(=O)CNC(=O)[C@H](Cc1ccccc1)NC(=O)[C@H](CC(N)=O)NC(=O)[C@@H]1CCCN1C(=O)[C@H](CO)NC(=O)[C@H](CO)NC(=O)[C@H](Cc1c[nH]cn1)NC(=O)[C@H](CCCNC(=N)N)NC(=O)[C@H](CC(C)C)NC(=O)[C@H](Cc1ccccc1)NC(=O)[C@H](CCCNC(=N)N)NC(=O)[C@H](C)NC(=O)[C@H](CC(C)C)NC(=O)[C@H](CCCNC(=N)N)NC(=O)[C@H](CCC(N)=O)NC(=O)[C@@H](NC(=O)[C@H](C)NC(=O)[C@@H]1CSSC[C@H](NC(=O)[C@@H](N)CCCCNC(=O)CC[C@H](NC(=O)CCCCCCCCCCCCCCCCCCC(=O)O)C(=O)O)C(=O)N[C@@H](CC(N)=O)C(=O)N[C@@H]([C@@H](C)O)C(=O)N[C@@H](C)C(=O)N[C@@H]([C@@H](C)O)C(=O)N1)[C@@H](C)O)C(=O)N1CCC[C@H]1C(=O)N[C@@H](CO)C(=O)N[C@@H](CO)C(=O)N[C@H](C(=O)N[C@@H](CC(N)=O)C(=O)N[C@H](C(=O)NCC(=O)N[C@@H](CO)C(=O)N[C@@H](CC(N)=O)C(=O)N[C@H](C(=O)N[C@@H](Cc1ccc(O)cc1)C(N)=O)[C@@H](C)O)C(C)C)[C@@H](C)O, also called compound 83) [N^ε1-[(4S)-4-carboxy-4-(19-carboxynonadecanoylamino)butanoyl]-[Arg14,Arg17,Pro21,Pro27]-h-amylin]
3940 pM | 161 pM | – | K([γGlu-C20 diacid])CNTATCATQRLANFLRHSSPNFGAIPSSTNVGRNTY-NH2 (disulfide 2-7; N-terminus assumed; SMILES CC[C@H](C)[C@H](NC(=O)[C@H](C)NC(=O)CNC(=O)[C@H](Cc1ccccc1)NC(=O)[C@H](CC(N)=O)NC(=O)[C@@H]1CCCN1C(=O)[C@H](CO)NC(=O)[C@H](CO)NC(=O)[C@H](Cc1c[nH]cn1)NC(=O)[C@H](CCCNC(=N)N)NC(=O)[C@H](CC(C)C)NC(=O)[C@H](Cc1ccccc1)NC(=O)[C@H](CC(N)=O)NC(=O)[C@H](C)NC(=O)[C@H](CC(C)C)NC(=O)[C@H](CCCNC(=N)N)NC(=O)[C@H](CCC(N)=O)NC(=O)[C@@H](NC(=O)[C@H](C)NC(=O)[C@@H]1CSSC[C@H](NC(=O)[C@@H](N)CCCCNC(=O)CC[C@H](NC(=O)CCCCCCCCCCCCCCCCCCC(=O)O)C(=O)O)C(=O)N[C@@H](CC(N)=O)C(=O)N[C@@H]([C@@H](C)O)C(=O)N[C@@H](C)C(=O)N[C@@H]([C@@H](C)O)C(=O)N1)[C@@H](C)O)C(=O)N1CCC[C@H]1C(=O)N[C@@H](CO)C(=O)N[C@@H](CO)C(=O)N[C@H](C(=O)N[C@@H](CC(N)=O)C(=O)N[C@H](C(=O)NCC(=O)N[C@@H](CCCNC(=N)N)C(=O)N[C@@H](CC(N)=O)C(=O)N[C@H](C(=O)N[C@@H](Cc1ccc(O)cc1)C(N)=O)[C@@H](C)O)C(C)C)[C@@H](C)O, also called compound 79) [N^ε1-[(4S)-4-carboxy-4-(19-carboxynonadecanoylamino)butanoyl]-[Arg17,Pro21,Pro27,Arg34]-h-amylin]
3640 pM | 146 pM | 24.9 | K([γGlu-C20 diacid])CNTATCATQRLADFLRHSSPNFGAIPSSTNVGPRTY-NH2 (disulfide 2-7; N-terminus assumed; SMILES CC[C@H](C)[C@H](NC(=O)[C@H](C)NC(=O)CNC(=O)[C@H](Cc1ccccc1)NC(=O)[C@H](CC(N)=O)NC(=O)[C@@H]1CCCN1C(=O)[C@H](CO)NC(=O)[C@H](CO)NC(=O)[C@H](Cc1c[nH]cn1)NC(=O)[C@H](CCCNC(=N)N)NC(=O)[C@H](CC(C)C)NC(=O)[C@H](Cc1ccccc1)NC(=O)[C@H](CC(=O)O)NC(=O)[C@H](C)NC(=O)[C@H](CC(C)C)NC(=O)[C@H](CCCNC(=N)N)NC(=O)[C@H](CCC(N)=O)NC(=O)[C@@H](NC(=O)[C@H](C)NC(=O)[C@@H]1CSSC[C@H](NC(=O)[C@@H](N)CCCCNC(=O)CC[C@H](NC(=O)CCCCCCCCCCCCCCCCCCC(=O)O)C(=O)O)C(=O)N[C@@H](CC(N)=O)C(=O)N[C@@H]([C@@H](C)O)C(=O)N[C@@H](C)C(=O)N[C@@H]([C@@H](C)O)C(=O)N1)[C@@H](C)O)C(=O)N1CCC[C@H]1C(=O)N[C@@H](CO)C(=O)N[C@@H](CO)C(=O)N[C@H](C(=O)N[C@@H](CC(N)=O)C(=O)N[C@H](C(=O)NCC(=O)N1CCC[C@H]1C(=O)N[C@@H](CCCNC(=N)N)C(=O)N[C@H](C(=O)N[C@@H](Cc1ccc(O)cc1)C(N)=O)[C@@H](C)O)C(C)C)[C@@H](C)O)
5580 pM | 425 pM | 13.1 | K([γGlu-C20 diacid])CNTATCATQRLAEFLRHSSPNFGAIPSSTNVGSHTY-NH2 (disulfide 2-7; N-terminus assumed; SMILES CC[C@H](C)[C@H](NC(=O)[C@H](C)NC(=O)CNC(=O)[C@H](Cc1ccccc1)NC(=O)[C@H](CC(N)=O)NC(=O)[C@@H]1CCCN1C(=O)[C@H](CO)NC(=O)[C@H](CO)NC(=O)[C@H](Cc1c[nH]cn1)NC(=O)[C@H](CCCNC(=N)N)NC(=O)[C@H](CC(C)C)NC(=O)[C@H](Cc1ccccc1)NC(=O)[C@H](CCC(=O)O)NC(=O)[C@H](C)NC(=O)[C@H](CC(C)C)NC(=O)[C@H](CCCNC(=N)N)NC(=O)[C@H](CCC(N)=O)NC(=O)[C@@H](NC(=O)[C@H](C)NC(=O)[C@@H]1CSSC[C@H](NC(=O)[C@@H](N)CCCCNC(=O)CC[C@H](NC(=O)CCCCCCCCCCCCCCCCCCC(=O)O)C(=O)O)C(=O)N[C@@H](CC(N)=O)C(=O)N[C@@H]([C@@H](C)O)C(=O)N[C@@H](C)C(=O)N[C@@H]([C@@H](C)O)C(=O)N1)[C@@H](C)O)C(=O)N1CCC[C@H]1C(=O)N[C@@H](CO)C(=O)N[C@@H](CO)C(=O)N[C@H](C(=O)N[C@@H](CC(N)=O)C(=O)N[C@H](C(=O)NCC(=O)N[C@@H](CO)C(=O)N[C@@H](Cc1c[nH]cn1)C(=O)N[C@H](C(=O)N[C@@H](Cc1ccc(O)cc1)C(N)=O)[C@@H](C)O)C(C)C)[C@@H](C)O)
6380 pM | 376 pM | 17 | K([γGlu-C20 diacid])CNTATCATQRLAEFLRHSSPNFGAIPSSTNVGPRTY-NH2 (disulfide 2-7; N-terminus assumed; SMILES CC[C@H](C)[C@H](NC(=O)[C@H](C)NC(=O)CNC(=O)[C@H](Cc1ccccc1)NC(=O)[C@H](CC(N)=O)NC(=O)[C@@H]1CCCN1C(=O)[C@H](CO)NC(=O)[C@H](CO)NC(=O)[C@H](Cc1c[nH]cn1)NC(=O)[C@H](CCCNC(=N)N)NC(=O)[C@H](CC(C)C)NC(=O)[C@H](Cc1ccccc1)NC(=O)[C@H](CCC(=O)O)NC(=O)[C@H](C)NC(=O)[C@H](CC(C)C)NC(=O)[C@H](CCCNC(=N)N)NC(=O)[C@H](CCC(N)=O)NC(=O)[C@@H](NC(=O)[C@H](C)NC(=O)[C@@H]1CSSC[C@H](NC(=O)[C@@H](N)CCCCNC(=O)CC[C@H](NC(=O)CCCCCCCCCCCCCCCCCCC(=O)O)C(=O)O)C(=O)N[C@@H](CC(N)=O)C(=O)N[C@@H]([C@@H](C)O)C(=O)N[C@@H](C)C(=O)N[C@@H]([C@@H](C)O)C(=O)N1)[C@@H](C)O)C(=O)N1CCC[C@H]1C(=O)N[C@@H](CO)C(=O)N[C@@H](CO)C(=O)N[C@H](C(=O)N[C@@H](CC(N)=O)C(=O)N[C@H](C(=O)NCC(=O)N1CCC[C@H]1C(=O)N[C@@H](CCCNC(=N)N)C(=O)N[C@H](C(=O)N[C@@H](Cc1ccc(O)cc1)C(N)=O)[C@@H](C)O)C(C)C)[C@@H](C)O)
